Data as given in patent US20100144601A1 (Janssen / Centocor, published 2010).
Where a chain is given by its changes, count along the chain named.

B1: Clone No. 6 (designed binder)
chain: LPAPKNLVVSEVTEDSLRLSWTAPDAAFDSFLIQYQESEKVGEAINLTVPGSERSYDLTGLKPGTEYTVSIYGVGGLTVIHPLSAEFTT
notes: F:G GGLTVIH
B2: Clone No. 79 (designed binder)
chain: B1 chain with G76I, L77P, T78R, V79W, I80V, H81R
notes: F:G GIPRWVR
B3: Clone No. 69 (designed binder)
chain: B1 chain with G75V, G76L, L77S, T78V, V79L, I80Q, H81R
notes: F:G VLSVLQR
B4: Clone No. 85 (designed binder)
chain: B1 chain with G75L, G76W, L77W, V79L, I80R, H81K
notes: F:G LWWTLRK
B5: Clone No. 75 (designed binder)
chain: B1 chain with G75M, G76T, V79G, H81D
notes: F:G MTLTGID
B6: Clone No. 2 (designed binder)
chain: B1 chain with T78S, V79D
notes: F:G GGLSDIH
B7: Clone No. 14 (designed binder)
chain: B1 chain with T78S, V79F, I80L
notes: F:G GGLSFLH
B8: Clone No. 35 (designed binder)
chain: B1 chain with T78A, V79Y, I80L
notes: F:G GGLAYLH
B9: Clone No. 74 (designed binder)
chain: B1 chain with T78S, V79Y, I80L
notes: F:G GGLSYLH
B10: Clone No. 13 (designed binder)
chain: B1 chain with G76A, T78S
notes: F:G GALSVIH
B11: Clone No. 12 (designed binder)
chain: B1 chain with T78R
notes: F:G GGLRVIH
B12: Clone No. 34 (designed binder)
chain: B1 chain with I80L
notes: F:G GGLTVLH
B13: Clone No. 8 (designed binder)
chain: B1 chain with V79Y, I80L
notes: F:G GGLTYLH
B14: Clone No. 71 (designed binder)
chain: B1 chain with T78R, V79Y, I80L
notes: F:G GGLRYLH
B15: Clone No. 3 (designed binder)
chain: B1 chain with G75E, T78G
notes: F:G EGLGVIH
B16: Clone No. 11 (designed binder)
chain: B1 chain with T78S, V79S
notes: F:G GGLSSIH
B17: Clone No. 7 (designed binder)
chain: B1 chain with V79Y
notes: F:G GGLTYIH
B18: Clone No. 84 (designed binder)
chain: B1 chain with G75S, G76V, L77R, T78M, V79S, I80S, H81V
notes: F:G SVRMSSV
B19: Clone No. 10 (designed binder)
chain: B1 chain with V79D
notes: F:G GGLTDIH
B20: Clone No. 5 (designed binder)
chain: B1 chain with T78S
notes: F:G GGLSVIH
B21: Clone No. 80 (designed binder)
chain: B1 chain with G75R, G76V, L77S, T78E, V79E, I80Y, H81G
notes: F:G RVSEEYG
B22: Clone No. 81 (designed binder)
chain: B1 chain with G75V, G76L, L77S, T78L, V79W, I80M, H81I
notes: F:G VLSLWMI
B23: Clone No. 73 (designed binder)
chain: B1 chain with G75P, G76W, L77R, T78Y, V79G, I80L
notes: F:G PWRYGLH
B24: Clone No. 72 (designed binder)
chain: B1 chain with G75M, G76L, L77K, T78S, V79F, I80A, H81S
notes: F:G MLKSFAS
B25: Clone No. 4 (designed binder)
chain: B1 chain with T78G
notes: F:G GGLGVIH
B26: Clone No. 83 (designed binder)
chain: B1 chain with G75D, G76V, L77T, T78E, I80Y, H81M
notes: F:G DVTEVYM
B27: Clone No. 15 (designed binder)
chain: B1 chain with G75I, G76T, L77H, T78M, V79R, I80D, H81M
notes: F:G ITHMRDM
B28: Clone No. 36 (designed binder)
chain: B1 chain with T78S, I80V
notes: F:G GGLSVVH
B29: Clone No. 78 (designed binder)
chain: B1 chain with G75R, G76L, L77T, T78A, V79L, I80N, H81A
notes: F:G RLTALNA
B30: Clone No. 76 (designed binder)
chain: B1 chain with L77W, T78P, I80R, H81V
notes: F:G GGWPVRV
B31: Clone No. 1 (designed binder)
chain: B1 chain with V79Y, I80F
notes: F:G GGLTYFH
B32: Clone No. 82 (designed binder)
chain: B1 chain with G75W, G76M, L77V, T78N, V79K, I80V, H81L
notes: F:G WMVNKVL
B33: Clone No. 77 (designed binder)
chain: B1 chain with G75L, G76D, T78Y, V79L, I80R, H81T
notes: F:G LDLYLRT
B34: Clone No. 70 (designed binder)
chain: B1 chain with G75E, G76W, L77R, T78V, V79Q, I80V, H81A
notes: F:G EWRVQVA
B35: Clone No. 68 (designed binder)
chain: B1 chain with G75W, G76H, L77G, T78M, V79I, I80R, H81P
notes: F:G WHGMIRP
B36: Clone No. 9 (designed binder)
chain: B1 chain with T78S, V79Y, I80F
notes: F:G GGLSYFH
B37: Clone No. 86 (designed binder)
chain: B1 chain with G75W, G76A, L77H, T78L, V79L, I80R, H81D
notes: F:G WAHLLRD

What follows are binders tested against T1, recombinant TNFα, biotinylated (human, UniProt P01375 77-233, biotinylated using sulfo-NHS-LC-Biotin (sites not given)) (assay: ELISA of lysates on biotinylated TNFα on streptavidin plate).
T1 construct: human is stated in the abstract and claims; also called biotinylated TNFα; human TNFα
Procedure: Maxisorp plates (Nunc) were coated with 0.5 μg of streptavidin, washed with TBST, and bound to 100 ng of biotinylated TNFα or 200 ng of biotinylated human serum albumin before being blocked with Starting Block (Thermo Scientific). Clarified lysates diluted 1:1 in Starting Block were added to the plates and allowed to bind for 1 hour before being washed with TBST. Detection of bound Tencon was accomplished using an anti-HIS-HRP antibody (Qiagen).

T1 sequence (P01375 77-233 limits assumed): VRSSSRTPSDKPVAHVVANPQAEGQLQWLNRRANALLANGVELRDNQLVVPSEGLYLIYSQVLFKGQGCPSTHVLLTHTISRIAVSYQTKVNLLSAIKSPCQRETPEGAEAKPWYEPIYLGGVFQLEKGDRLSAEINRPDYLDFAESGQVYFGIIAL

Row | binding result | Binder
1 | binds | B1
2 | binds | B2
3 | binds | B3
4 | binds | B4
5 | binds | B5
6 | binds | B6
7 | binds | B7
8 | binds | B8
9 | binds | B9
10 | binds | B10
11 | binds | B11
12 | binds | B12
13 | binds | B13
14 | binds | B14
15 | binds | B15
16 | binds | B16
17 | binds | B17
18 | binds | B18
19 | binds | B19

Row | binding result | Binder
20 | binds | B20
21 | binds | B21
22 | binds | B22
23 | binds | B23
24 | binds | B24
25 | binds | B25
26 | binds | B26
27 | binds | B27
28 | binds | B28
29 | binds | B29
30 | binds | B30
31 | binds | B31
32 | binds | B32
33 | binds | B33
34 | binds | B34
35 | binds | B35
36 | binds | B36
37 | binds | B37
